First the molecules themselves.
T1: IIIb
T1 chain: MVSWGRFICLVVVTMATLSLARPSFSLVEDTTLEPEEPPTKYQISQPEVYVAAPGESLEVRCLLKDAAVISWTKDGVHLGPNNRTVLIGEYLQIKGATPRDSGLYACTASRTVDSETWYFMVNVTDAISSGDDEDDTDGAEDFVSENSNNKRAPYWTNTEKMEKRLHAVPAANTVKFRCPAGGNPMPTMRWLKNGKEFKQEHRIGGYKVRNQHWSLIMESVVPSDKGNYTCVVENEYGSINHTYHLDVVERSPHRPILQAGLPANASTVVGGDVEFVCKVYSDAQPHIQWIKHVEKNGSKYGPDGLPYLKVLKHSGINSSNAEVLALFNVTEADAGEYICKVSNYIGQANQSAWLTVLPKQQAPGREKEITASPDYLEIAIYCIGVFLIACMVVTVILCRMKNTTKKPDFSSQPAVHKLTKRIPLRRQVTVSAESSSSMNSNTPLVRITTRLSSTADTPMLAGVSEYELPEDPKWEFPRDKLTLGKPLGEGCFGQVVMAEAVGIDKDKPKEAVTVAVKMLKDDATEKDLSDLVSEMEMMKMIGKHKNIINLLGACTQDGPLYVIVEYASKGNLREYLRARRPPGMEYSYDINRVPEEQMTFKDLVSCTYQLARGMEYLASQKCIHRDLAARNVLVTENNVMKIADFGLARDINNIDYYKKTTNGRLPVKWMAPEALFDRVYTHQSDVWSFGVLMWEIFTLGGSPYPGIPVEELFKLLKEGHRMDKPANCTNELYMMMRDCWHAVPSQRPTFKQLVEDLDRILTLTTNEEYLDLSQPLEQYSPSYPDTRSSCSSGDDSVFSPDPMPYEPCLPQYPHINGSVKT

B1: human chimeric anti-FGFR2 antibody cFR2-14 (antibody, V domains shown)
VH: QVKLLQSGAELVKPGASVKLSCKTSGFTFSTSYMSWLKQVPGPSTEWIGWIYAGDGGTKYNQKFKGKATLTVDKFSSTAYMDLSSLTSEDAAVYFCATDGYGDWFTYWGQGTLVTVSS
VL: DIQMTQSPASLSASLGETVTIECRASEDIYSNLAWYQQKPGNSPQLLIYDANILADGVPSRFSGSGSGTQYSLKINSLQSEDVASYFCQQYNNYPPFTFGAGTKLELKR
B2: humanized anti-FGFR2 antibody hFR2-14_H1/L1 (antibody, V domains shown)
VH: QVQLVQSGAEVKKPGASVKVSCKASGFTFSTSYMSWVRQAPGQGLEWMGWIYAGDGGTKYNQKFKGRVTLTVDKSTSTAYMELSSLRSEDTAVYYCATDGYGDWFTYWGQGTLVTVSS
VL: DIQMTQSPSSLSASVGDRVTITCRASEDIYSNLAWYQQKPGKSPQLLIYDANILADGVPSRFSGSGSGTDYTLTISSLQPEDFATYYCQQYNNYPPFTFGQGTKVEIKR
B3: humanized anti-FGFR2 antibody hFR2-14_H2/L1 (antibody, V domains shown)
VH: B2 VH with V72A
VL: B2 VL
B4: humanized anti-FGFR2 antibody hFR2-14_H4/L1 (antibody, V domains shown)
VH: B2 VH with Q43P, G44S, L45I, T106A
VL: B2 VL
B5: humanized anti-FGFR2 antibody hFR2-14_H7/L1 (antibody, V domains shown)
VH: B2 VH with Q43P, G44S, L45T, G100E
VL: B2 VL
B6: humanized anti-FGFR2 antibody hFR2-14_H9/L1 (antibody, V domains shown)
VH: B2 VH with Q43P, G44S, L45T, G100H
VL: B2 VL
B7: humanized anti-FGFR2 antibody hFR2-14_H10/L1 (antibody, V domains shown)
VH: B2 VH with Q43P, G44S, L45T, G100I
VL: B2 VL
B8: humanized anti-FGFR2 antibody hFR2-14_H5/L1 (antibody, V domains shown)
VH: B2 VH with Q43P, G44S, L45T, D99E
VL: B2 VL
B9: humanized anti-FGFR2 antibody hFR2-14_H14/L1 (antibody, V domains shown)
VH: B2 VH with Q43P, G44S, L45T, G100Q
VL: B2 VL
B10: humanized anti-FGFR2 antibody hFR2-14_H15/L1 (antibody, V domains shown)
VH: B2 VH with Q43P, G44S, L45T, G100R
VL: B2 VL
B11: humanized anti-FGFR2 antibody hFR2-14_H11/L1 (antibody, V domains shown)
VH: B2 VH with Q43P, G44S, L45T, G100K
VL: B2 VL
B12: humanized anti-FGFR2 antibody hFR2-14_H17/L1 (antibody, V domains shown)
VH: B2 VH with Q43P, G44S, L45T, G100W
VL: B2 VL
B13: humanized anti-FGFR2 antibody hFR2-14_H6/L1 (antibody, V domains shown)
VH: B2 VH with Q43P, G44S, L45T, G100A
VL: B2 VL
B14: humanized anti-FGFR2 antibody hFR2-14_H16/L1 (antibody, V domains shown)
VH: B2 VH with Q43P, G44S, L45T, G100V
VL: B2 VL
B15: humanized anti-FGFR2 antibody hFR2-14_H18/L1 (antibody, V domains shown)
VH: B2 VH with Q43P, G44S, L45T, G100Y
VL: B2 VL
B16: humanized anti-FGFR2 antibody hFR2-14_H13/L1 (antibody, V domains shown)
VH: B2 VH with Q43P, G44S, L45T, G100M
VL: B2 VL

Residue numbers refer to the chain shown, from its start.

The target in the first test is T1, IIIb. Put plainly: Biacore; rhFGFR2 alpha (IIIb) Fc chimera.
As a reminder, the Kd is the free concentration of one partner at which half of the binding sites on the other are occupied at equilibrium, for simple one-to-one binding. B1 returned an equilibrium dissociation constant (Kd) of 63 nM.
Still for that read-out and setting: in the case of B2 it was 12 nM.
As for B3, the dissociation constant Kd stood at 8.7 nM.
B4 returned a Kd of 5.4 nM.

For a further test, the target named is IIIc. The experiment in a line: Biacore; rhFGFR2 alpha (IIIc) Fc chimera. A general note: In SPR one partner is held on a chip, and binding of the other changes the refractive index at the surface.
On to B2, for which the Kd worked out at 3 nM.
Molecule B3 yielded a Kd of 6.4 nM.
Still for that read-out and setting: in the case of B4 it was 2.8 nM.

In another test the target is human FGFR2 IIIc variant protein (isoform 1: NP_000132), expressed on transfected cells (UniProt P21802 22-821). The experiment in a line: Biacore.
Sequence of human FGFR2 IIIc variant protein (isoform 1: NP_000132), expressed on transfected cells (P21802 22-821, change not shown): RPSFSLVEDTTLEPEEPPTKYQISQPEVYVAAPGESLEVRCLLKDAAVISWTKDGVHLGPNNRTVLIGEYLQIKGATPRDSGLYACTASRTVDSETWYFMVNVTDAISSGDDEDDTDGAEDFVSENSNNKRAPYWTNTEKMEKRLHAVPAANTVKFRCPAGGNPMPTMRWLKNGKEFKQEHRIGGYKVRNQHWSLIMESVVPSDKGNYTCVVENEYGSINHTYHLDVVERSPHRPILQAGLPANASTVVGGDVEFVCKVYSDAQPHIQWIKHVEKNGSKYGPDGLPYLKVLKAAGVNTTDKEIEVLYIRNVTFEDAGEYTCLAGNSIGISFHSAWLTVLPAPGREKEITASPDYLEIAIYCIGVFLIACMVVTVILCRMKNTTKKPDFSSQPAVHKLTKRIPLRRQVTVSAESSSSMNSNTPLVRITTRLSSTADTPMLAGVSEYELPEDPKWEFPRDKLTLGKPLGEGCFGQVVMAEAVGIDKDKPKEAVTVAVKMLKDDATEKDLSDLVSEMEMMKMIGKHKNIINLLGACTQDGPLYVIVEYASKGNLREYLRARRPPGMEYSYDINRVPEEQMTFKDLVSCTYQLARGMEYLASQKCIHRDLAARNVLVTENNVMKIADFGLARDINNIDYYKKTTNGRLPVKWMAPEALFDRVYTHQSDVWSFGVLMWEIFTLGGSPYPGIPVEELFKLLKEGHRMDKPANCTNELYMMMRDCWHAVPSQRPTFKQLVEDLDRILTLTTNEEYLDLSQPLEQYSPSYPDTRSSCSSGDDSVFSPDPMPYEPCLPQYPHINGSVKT
B5 had a Kd of 1.2 nM.
Still for that read-out and setting: under B6 stands 0.51 nM; under B7, 0.69 nM.
On to B8, for which the affinity, expressed as Kd, was 0.95 nM.
The same measure, in the same setting: in the case of B9 it was 2.3 nM.
Still for that read-out and setting: in the case of B10 it was 3.4 nM; in that of B11, 2.1 nM.
Same read-out and setting: under B12 stands 1.5 nM; under B13, 1.5 nM.
Take B14: the Kd was 0.91 nM.
On the same count and under the same terms, in the case of B15 it was 1.2 nM; in that of B16, 0.67 nM.

For the origin of these results see patent publication US20160317656A1 (published 2016).
